Data: the RNAGym collection of RNA variant scans (doi:10.7554/elife.80360)

B1: HDV Ribozyme (parent)
chain: GGCCGGCAUGGUCCCAGCCUCCUCGCUGGCGCCGGCUGGGCAACAUUCCGAGGGGACCGUCCCCUCGGUAAUGGCGAAUGGGACCCA

Variants of: B1
Assay: self-cleavage, relative activity (ratio to wild type); higher = more cleavage; co-transcriptional

| Variant | self-cleavage |
| --- | --- |
| GGCCGGCACGGUCCCAGCCUCCUCGGUGGCGCCGGCUGGGCAACAUUCCGAGGGGACCGUCCCCUCGGUAAUGGCGAAUGGGACCCA | 0.886 |
| GGCCGGCACGGUCCCAGCCUCCUCGCUGGCGCCGGCUGGGCAACAUACCGAGGGGACCGUCCCCUCGGUAAUGGCGAAUGGGACCCA | 1.11 |
| GGCCGGCACGGUCCCAGCCUCCUCGCUGGCGCCGGCUGGGCAACAUUCCGAGGGGACCGUCCCCUCGGUAAUGGCCAAUGGGACCCA | 1.11 |
| GGCCGGCACGGUCCCAGCCUCCUCGCUGGCGCCGGCUGGGCAACAUUCCGAGGGGACCGUCCCCUCGGUAAUGGCGAAUGGAACCCA | 0.266 |
| GGCCGGCACGGUCCCAGCCUCCUCGCUGGCGCCGGCUGGGCAACAUUCCGAGGGGACCGUCCCCUCGGUAAUGGCGAAUGGCACCCA | 0.262 |
| GGCCGGCACGGUCCCAGCCUCCUCGCUGGCGCCGUCUGGGCAACAUUCCGAGGGGACCGUCCCCUCGGUAAUGGCGAAUGGGACCCA | 0.135 |
| GGCCGGCACGGUCCCAGCCUCCUCGCUGGCGCCGACUGGGCAACAUUCCGAGGGGACCGUCCCCUCGGUAAUGGCGAAUGGGACCCA | 0.394 |
| GGCCGGCAAGGUCCCAGCCUCCUCGCUGGCGCCGGCUGGGCAACAUGCCGAGGGGACCGUCCCCUCGGUAAUGGCGAAUGGGACCCA | 0.772 |
| GGCCGGCACGGUCCCAGCCUCCUCGCUGGCGCCGGCUGGGCAACAUUCCGAGGGGACCGUCCCCUCGGUAAUGGCGAAUGGGACCAA | 1.03 |
| GGCCGGCACGGUCCCAGCCUCCUCGCUGGCGCCGGCUGGGCAACAUUCCGAGGGGACCGUCCCCUCGGUAAUGCCGAAUGGGACCCA | 0.277 |
| GGCCGGCACGGUCCCAGCCUCCUCGCUGGCGCCGGCUGGGCAACAUUCCGAGGGGACCGUCCCCUCGGUAAUGGCGUAUGGGACCCA | 0.867 |
| GGCCGGCACGGUCCCAGCCUCAUCGCUGGCGCCGGCUGGGCAACAUUCCGAGGGGACCGUCCCCUCGGUAAUGGCGAAUGGGACCCA | 0.192 |
| GGCCGGCACGGUCCCAGCCGCCUCGCUGGCGCCGGCUGGGCAACAUUCCGAGGGGACCGUCCCCUCGGUAAUGGCGAAUGGGACCCA | 0.443 |
| GGCCGGCACGAUCCCAGCCUCCUCGCUGGCGCCGGCUGGGCAACAUUCCGAGGGGACCGUCCCCUCGGUAAUGGCGAAUGGGACCCA | 0.0755 |
| GGCCGGCACGGUCCCAGCCUCCUCGCUGGCGCCGGCUGGGCAAGAUUCCGAGGGGACCGUCCCCUCGGUAAUGGCGAAUGGGACCCA | 0.63 |
| GGCCGGCACGGUCCCAGCCUCCUCGCUGGCGCCGGCUGGGCAACAUUACGAGGGGACCGUCCCCUCGGUAAUGGCGAAUGGGACCCA | 0.911 |
| GGCCGGCACGGUCCCAGCCUCCUCGCUGGCGCCGGCUGGGCAACAUUCCGAUGGGACCGUCCCCUCGGUAAUGGCGAAUGGGACCCA | 1.06 |
| GGCCGGCACGGUCCCAGCCUCCUCGCUGGCGCCGGCUGGGCAACAUUCCGAAGGGACCGUCCCCUCGGUAAUGGCGAAUGGGACCCA | 1.04 |
| GGCCGGCACGGUCCCAGCCUCCUCGCUGGCGCCGGCUGGGCAACAUUCCGAGGGGACCGUCCCCUCGGUAAUGGCGAAUGGGACACA | 0.969 |
| GGCCGGCACGGUCCCAGCCUCCUCGCUGGCGCGGGCUGGGCAACAUUCCGAGGGGACCGUCCCCUCGGUAAUGGCGAAUGGGACCCA | 0.249 |
| GGCCGGCACGGUCCCAGCCUCCUCGCUGGCGCCGGCUGGGCAACAUUCCGAGGGGAUCGUCCCCUCGGUAAUGGCGAAUGGGACCCA | 0.95 |
| GGCCGGCACGGUCCCAGCCUCCUCGCUGGCGCCGGCUGGGCAACAUUCCGAGGGGACCGUCCCCUCGGUAAUGGCGAAUGCGACCCA | 0.598 |

| Variant | self-cleavage |
| --- | --- |
| GGCCGGCACGGUCCCAGCCUCCUCGCUGGCGCCGGCUGGGCAACAUUCCGAGGGGACCGUCCCAUCGGUAAUGGCGAAUGGGACCCA | 0.831 |
| GGCCGGCACGGUCCCAGCCUCCUCGCUGUCGCCGGCUGGGCAACAUUCCGAGGGGACCGUCCCCUCGGUAAUGGCGAAUGGGACCCA | 0.115 |
| GGCCGGCACGGUCCCAGCCUCCUCGCUGCCGCCGGCUGGGCAACAUUCCGAGGGGACCGUCCCCUCGGUAAUGGCGAAUGGGACCCA | 0.138 |
| GGCCGGCACGGUCCCAGCCUCCGCGCUGGCGCCGGCUGGGCAACAUUCCGAGGGGACCGUCCCCUCGGUAAUGGCGAAUGGGACCCA | 0.831 |
| GGCCGGCACGGUCCCAGCCUCCACGCUGGCGCCGGCUGGGCAACAUUCCGAGGGGACCGUCCCCUCGGUAAUGGCGAAUGGGACCCA | 1.13 |
| GGCCGGCACGGUCCCAGCCUCCUCGCUGGCGCCGGCUGGGCAACAUUCCGAGGUGACCGUCCCCUCGGUAAUGGCGAAUGGGACCCA | 0.937 |
| GGCCGGCACGGUCCCAGCCUCCUCGCUGGCGCCGGCUGGGCAACAUUCCGAGGCGACCGUCCCCUCGGUAAUGGCGAAUGGGACCCA | 1.11 |
| GGCCGGCACGGUCCCAGCCUCCUCGCUGGCGCCGGCUGGGCAACAUUCCGAGGGAACCGUCCCCUCGGUAAUGGCGAAUGGGACCCA | 1.27 |
| GGCCGGCACGGUCCCAGCCUCCUCGCUGGCGCCGGCUGGGCAACAUUCCGAGGGUACCGUCCCCUCGGUAAUGGCGAAUGGGACCCA | 1.2 |
| GGCCGGCACGGUCCCAGCCUCCUCGCUGGCGCCGGCUGGGCAACAUUCCGAGGGCACCGUCCCCUCGGUAAUGGCGAAUGGGACCCA | 0.703 |
| GGCCGGCACGGUCCCAGCCUCCUCGCUGGCGCCGGCUGGGCAACAUUCCGAGGGGACCGUCCCCUCGGUAAAGGCGAAUGGGACCCA | 0.587 |
| GGCCGGCACGGUCCCAGCCUCCUCGCUGGCGCCGGCUGGGCAACAUUCCGAGCGGACCGUCCCCUCGGUAAUGGCGAAUGGGACCCA | 1.15 |
| GGCCGGCACGGUCCCAGCCUCCUCGCUGGAGCCGGCUGGGCAACAUUCCGAGGGGACCGUCCCCUCGGUAAUGGCGAAUGGGACCCA | 0.458 |
| GGCCGGCACGGUCCCAGCCUCCUCGCUGGCGCCGGCGGGGCAACAUUCCGAGGGGACCGUCCCCUCGGUAAUGGCGAAUGGGACCCA | 0 |
| GGCCGGCACGGUCCCAGCCUCCUCGCUGGCGCCGGCAGGGCAACAUUCCGAGGGGACCGUCCCCUCGGUAAUGGCGAAUGGGACCCA | 0.289 |
| GGCCGGCACGGUCCCAGCCUCCUCGCUGGCGCCGGCUGGGGAACAUUCCGAGGGGACCGUCCCCUCGGUAAUGGCGAAUGGGACCCA | 0.831 |
| GGCCGGCACGGUCUCAGCCUCCUCGCUGGCGCCGGCUGGGCAACAUUCCGAGGGGACCGUCCCCUCGGUAAUGGCGAAUGGGACCCA | 1.11 |
| GGCCGGCACGGUCCCAGCCUCCUCGCUGGCGCCGGCUGGGCAACAUUCCGAGGGGACCGUCCCCUCGGUAAUGGCGACUGGGACCCA | 0.128 |
| GGCCGGCACGGUCCCAGCCUCCUCGCUGGCGCCGGCUGGGCAACAGUCCGAGGGGACCGUCCCCUCGGUAAUGGCGAAUGGGACCCA | 1.19 |
| GGCCGGCACGGUCCCAGCCUCCUCGCUGGCGCCGGCUGGGCAACAUUCCGCGGGGACCGUCCCCUCGGUAAUGGCGAAUGGGACCCA | 1.49 |
| GGCCGGCACGGUCCCGGCCUCCUCGCUGGCGCCGGCUGGGCAACAUUCCGAGGGGACCGUCCCCUCGGUAAUGGCGAAUGGGACCCA | 1.51 |
| GGCCGGCAGGGUCCCAGCCUCCUCGCUGGCGCCGGCUGGGCAACAUUCCGAGGGGACCGUCCCCUCGGUAAUGGCGAAUGGGACCCA | 1.02 |

| Variant | self-cleavage |
| --- | --- |
| GGCCGGCACGGUCCCAGCCUCCUCGCUGGCGCCGGCUGGGCAACAUUCCGAGGGGACCGUCCCCUCGGUAAUGGCGAAUGGGACCCA | 1.04 |
| GGCCGGCACGGUCCCAGCCUCCUCGCUGGCGCCGGCUGGGCAACAUUCCGAGGGGACCGUCCCCUCGGUAAUGGCGAAAGGGACCCA | 0.831 |
| GGCCGGCACGGUCCCAGCCUCCUCGCUGGCGCCGGCUGAGCAACAUUCCGAGGGGACCGUCCCCUCGGUAAUGGCGAAUGGGACCCA | 0.567 |
| GGCCGGCACGGUCCCAGCCUCCUCUCUGGCGCCGGCUGGGCAACAUUCCGAGGGGACCGUCCCCUCGGUAAUGGCGAAUGGGACCCA | 0.104 |
| GGCCGGCAAGGUCCCAGCCUCCUCGCUGGCGCCGGCGGGGCAACAUUCCGAGGGGACCGUCCCCUCGGUAAUGGCGAAUGGGACCCA | 0.208 |
| GGCCGGCACGGUCCCAGCCUCCUCGCUGGCGCCGGCUGGGCAACAUUCCGAGGGGACCGUCCCCUCUGUAAUGGCGAAUGGGACCCA | 1.12 |
| GGCCGGCACGGUCCCAGCCUCCUCGCUGGCGCCGGCUGGGCAACAUUCCGAGGGGACCGUCCCCUCCGUAAUGGCGAAUGGGACCCA | 0.703 |
| GGCCGGCACGGUCCCAGCCUCCUCGCUGGCGCCGGCUGGGCAACAUUCCGAGGGGACCGUCCCCUCGGUAAUUGCGAAUGGGACCCA | 0.383 |
| GGCCGGCACGGUCCCAGCCUCCUCGCUGGCGCCGGCUGGGCAACAUUCCGAGGGGACCGUCCGCUCGGUAAUGGCGAAUGGGACCCA | 0.831 |
| GGCCGGCACGGUCCCAGCCUCCUCGCUGGCGCCGGCUGGGCAACAUUCCGAGGGGACCGUCCUCUCGGUAAUGGCGAAUGGGACCCA | 0.987 |
| GGCCGGCACGGUCCCAGCCUCCUCGCUGGCGCCGGCUGGGCAACAUUCCGAGGGGACCGUCCCCUCGGUAAUGGCGAAUGGGACCCG | 1.12 |
| GGCCGGCACGGUCCCAGCCUCCUCGCUGGCGCCGGCUGGGCAACAUUCCGAGGGGACCGUCCCCUAGGUAAUGGCGAAUGGGACCCA | 1.04 |
| GGCCGGCACAGUCCCAGCCUCCUCGCUGGCGCCGGCUGGGCAACAUUCCGAGGGGACCGUCCCCUCGGUAAUGGCGAAUGGGACCCA | 0.985 |
| GGCCGGCACGGUCCCAGCCUCCUCGCUGGCGCCGGCUGGGCUACAUUCCGAGGGGACCGUCCCCUCGGUAAUGGCGAAUGGGACCCA | 0.767 |
| GGCCGGCAAGGUCCCAGCCUCCUCGCUGGCGCCGGCUGGGCAACAUUCCGAGGGGACCGUCCCCUCGGUAAUGGCGAAAGGGACCCA | 0.923 |
| GGCCGGCACGGUCCCAGCAUCCUCGCUGGCGCCGGCUGGGCAACAUUCCGAGGGGACCGUCCCCUCGGUAAUGGCGAAUGGGACCCA | 0.175 |
| GGCCGGCACGGUCCCAGCCUCCUCGCUGGCGCCUGCUGGGCAACAUUCCGAGGGGACCGUCCCCUCGGUAAUGGCGAAUGGGACCCA | 0.178 |
| GGCCGGCACGGUCCCAGCCUCCUCGCUGGCGCCGGCUGGGCAACAUUCCGAGGGGCCCGUCCCCUCGGUAAUGGCGAAUGGGACCCA | 1.06 |
| GGCCGGCACGGUCCCAGCCUCCUCGCUGGCGCCGGCUGGGCAACUUUCCGAGGGGACCGUCCCCUCGGUAAUGGCGAAUGGGACCCA | 0.554 |
| GGCCGGCACGGUCCCAGCCUCCUCGCUGGCGCCGGCUGGGCAACAUUCCGAGGGGACCGUCCCCUCGGUUAUGGCGAAUGGGACCCA | 0.831 |
